Columns and labels:
[1] = target: muskelin (1–735) (rat) (UniProt Q99PV3); test: ITC; competition: RanBP9-Twa1 or RanBP10-Twa1 complex (160 μM) titrated into pre-formed Twa1_52-muskelin or Twa1_52-Wdr26 complex (16 μM); 25°C; competitive binding model with the parameters of the first titration
[2] = target: Wdr26 (102–641) (mouse) (UniProt Q8C6G8); test: as above
[3] = target: muskelin CTLH-CRA domain (205–735 Δ248–625) (UniProt Q99PV3); test: ITC; conditions: 160 µM muskelin + 16 µM RanBP10
[4] = target: muskelin CTLH-CRA domain (205–735 Δ248–625) (UniProt Q99PV3); test: ITC; conditions: for other: -TΔS / dG / other: ΔH: read off a plot
[5] = target: Maea CTLH-CRA domain (156-279) (mouse) (UniProt Q4VC33); test: SEC-MALS; purified CTLH-CRA domains alone or mixed (RanBP10 and Twa1 variants with Maea or muskelin), final concentration 250 μM, Superdex 75 10/300 GL
[6] = target: RanBP10 CTLH-CRA domain Q519G (mouse); test: SEC-MALS; RanBP10 Q519G (Q547G) dilution series; molar masses of 0.3 ml peak fractions against concentration, one-site binding fit; dimer to monomers
[7] = target: RanBP10 CTLH-CRA domain (315–608, Δ382–529), wild type (mouse); test: ITC; muskelin CTLH-CRA (160 μM, syringe) titrated into RanBP10 or Twa1 CTLH-CRA variants (16 μM, cell); 25°C; 20 mM tricine pH 8.0, 500 mM NaCl, 1 mM TCEP; one-site model
[8] = target: RanBP10 CTLH-CRA domain (315–608, Δ382–529), wild type; test: ITC; conditions: 160 µM muskelin + 16 µM RanBP10
[9] = target: RanBP10 CTLH-CRA domain (315–608, Δ382–529), wild type; test: ITC; conditions: 160 µM muskelin + 16 µM RanBP10; remark: listed apart in the source
[10] = target: RanBP10 CTLH-CRA domain (315–608, Δ382–529), wild type (mouse); test: SEC-MALS; CTLH-CRA domain complexes co-expressed in E. coli and purified as complexes; Superdex 75 10/300 GL; 20 mM tricine pH 8.0, 500 mM NaCl, 1 mM TCEP
[11] = 160 µM muskelin + 16 µM RanBP10 mutants
[12] = 160 µM muskelin + 16 µM RanBP10 mutants, parent: est. 4.1 kcal/mol
[13] = 160 µM muskelin + 16 µM RanBP10 mutants, parent: est. -11 kcal/mol
[14] = 160 µM muskelin + 16 µM RanBP10 mutants, parent: est. -16 kcal/mol
[15] = 160 µM muskelin + 16 µM Twa1 mutants

Sequence of Maea CTLH-CRA domain (156-279) (mouse) (Q4VC33 156-279): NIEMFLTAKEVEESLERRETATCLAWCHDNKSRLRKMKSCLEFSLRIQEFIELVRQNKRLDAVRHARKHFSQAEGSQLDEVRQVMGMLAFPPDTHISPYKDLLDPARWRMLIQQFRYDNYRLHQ
Sequence of Wdr26 (102–641) (mouse) (Q8C6G8 102-641): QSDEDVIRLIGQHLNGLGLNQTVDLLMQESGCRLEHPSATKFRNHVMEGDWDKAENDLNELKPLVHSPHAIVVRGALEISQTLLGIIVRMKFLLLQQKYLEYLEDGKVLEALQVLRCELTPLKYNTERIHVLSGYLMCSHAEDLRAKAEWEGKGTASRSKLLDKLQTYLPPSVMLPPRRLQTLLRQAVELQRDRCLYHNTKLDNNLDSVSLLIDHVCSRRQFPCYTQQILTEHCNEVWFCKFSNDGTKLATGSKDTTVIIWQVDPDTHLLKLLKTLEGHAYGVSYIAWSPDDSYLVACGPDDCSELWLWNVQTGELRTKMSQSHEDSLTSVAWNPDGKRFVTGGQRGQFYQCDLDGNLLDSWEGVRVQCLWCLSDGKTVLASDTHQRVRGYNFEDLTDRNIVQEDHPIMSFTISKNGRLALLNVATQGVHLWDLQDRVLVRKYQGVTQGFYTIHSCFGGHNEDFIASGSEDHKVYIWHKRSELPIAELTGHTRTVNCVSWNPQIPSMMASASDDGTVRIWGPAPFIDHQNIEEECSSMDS

Row | Substance | Kd [3] | Kd [4, 11] | other: molar ratio n [4, 11] | other: -TΔS [4, 12] | dG [4, 13] | other: ΔH [4, 14] | also measured
1 | RanBP10 (57–648)-Twa1 (1–228) complex (from UniProt Q9D7M1 1-228) | – | – | – | – | – | – | Kd [1]: 0.07 nM; Kd [2]: 0.0623 nM
2 | RanBP10 CTLH-CRA domain (315–608, Δ382–529), wild type F543L | 83.7 nM | 83.7 nM | 0.88 | -0.7 kcal/mol | -9.6 kcal/mol | -8.8 kcal/mol | –
3 | RanBP10 CTLH-CRA domain (315–608, Δ382–529), wild type F543L; V556F | 338 nM | 338 nM | 0.98 | -0.5 kcal/mol | -8.9 kcal/mol | -8.4 kcal/mol | –
4 | RanBP10 CTLH-CRA domain (315–608, Δ382–529), wild type F543L; Y548F | 390 nM | 390 nM | 0.91 | -3.3 kcal/mol | -8.8 kcal/mol | -5.4 kcal/mol | –
5 | RanBP10 CTLH-CRA domain (315–608, Δ382–529), wild type Q519G | – | 8.49 nM | 0.93 | 4.1 kcal/mol | -11 kcal/mol | -15 kcal/mol | –
6 | RanBP10 CTLH-CRA domain (315–608, Δ382–529), wild type V556F | – | – | 0.8 | 5 kcal/mol | -11 kcal/mol | -16 kcal/mol | –
7 | RanBP10 CTLH-CRA domain (315–608, Δ382–529), wild type Y548F | 54.8 nM | 54.8 nM | 1.06 | 1.9 kcal/mol | -10 kcal/mol | -12 kcal/mol | –
8 | RanBP10 CTLH-CRA domain (315–608, Δ382–529), wild type Y548F; V556F | 298 nM | 298 nM | 0.95 | -0.6 kcal/mol | -9 kcal/mol | -8.3 kcal/mol | –
9 | RanBP10 CTLH-CRA domain Q519G (domain or fragment) | – | – | – | – | – | – | stoichiometry N [5]: 1; Kd [6]: 18000 nM
10 | RanBP10 CTLH-CRA domain Q519G, F543L, Y548F, V556F (quadruple mutant) (from UniProt Q6VN19 315-608) (domain or fragment) | – | – | – | – | – | – | stoichiometry N [5]: 1
11 | Twa1 CTLH-CRA domain (58-190), wild type (from UniProt Q9D7M1) A125G; Q126R; T127del; A130Q; L140K; M143L; E144K; L147F; F152Y | – | – | – | – | – | – | Kd [4, 15]: 795 nM; other: molar ratio n [4, 15]: 0.94; dG [4, 15]: -8.3 kcal/mol; other: -TΔS [4, 15]: -0.4 kcal/mol; other: ΔH [4, 15]: -7.9 kcal/mol
12 | Twa1 CTLH-CRA domain (58-190), wild type (from UniProt Q9D7M1) A125G; Q126R; T127del; Q128E; A130Q; L140K; M143L; E144Q; L147F; A148S; F152Y; F160V | – | – | – | – | – | – | Kd [4, 15]: 247 nM; other: molar ratio n [4, 15]: 1.05; dG [4, 15]: -9 kcal/mol; other: -TΔS [4, 15]: 4.3 kcal/mol; other: ΔH [4, 15]: -13 kcal/mol
13 | Twa1 CTLH-CRA domain (58-190), wild type (from UniProt Q9D7M1) A125G; Q126R; T127del; Q128E; A130Q; M143L; E144Q; L147F; A148S; F152Y | – | – | – | – | – | – | Kd [4, 15]: 354 nM; other: molar ratio n [4, 15]: 0.95; dG [4, 15]: -8.8 kcal/mol; other: -TΔS [4, 15]: 3.4 kcal/mol; other: ΔH [4, 15]: -12 kcal/mol
14 | muskelin CTLH-CRA domain (205–735 Δ248–625) (from UniProt Q99PV3 205-735) (domain or fragment) | – | – | – | – | – | – | Kd [7]: 4.33 nM
15 | muskelin CTLH-CRA domain (205–735 Δ248–625) (from UniProt Q99PV3) F686L | – | – | – | – | – | – | Kd [8]: 56.7 nM; Kd [9]: 56.7 nM; other: molar ratio n [9]: 1.07; other: -TΔS ([9]; parent: est. 4.1 kcal/mol, read off a plot): -1.6 kcal/mol; dG ([9]; parent: est. -11 kcal/mol, read off a plot): -9.9 kcal/mol; other: ΔH ([9]; parent: est. -16 kcal/mol, read off a plot): -8.2 kcal/mol
16 | muskelin CTLH-CRA domain, C-terminally shortened (205–719, Δ248–624) (from UniProt Q99PV3 205-719) (domain or fragment) | – | – | – | – | – | – | stoichiometry N [10]: 1

From publication PMC13061415
